Here are results for one protein from article PMC10358891, “The AMP deaminase of the mollusk Helix pomatia is an unexpected member of the adenosine deaminase-related growth factor (ADGF) family” (PLOS ONE, 2023).

Substrate in the data set: Nc1ncnc2c1ncn2[C@@H]1O[C@H](COP(=O)(O)O)[C@@H](O)[C@H]1O
Nature of the data set: spectrophotometric deamination assay, initial rates, Lineweaver-Burk. Type of data set: biochemical, Helix pomatia. The conditions noted are these: 20 mM Tris-HCl pH 7.5, 50 mM NaCl, 25 °C (general assay buffer). The source says: spectrophotometric deamination assay, initial rates, Lineweaver-Burk on […]

B1: HPAMPD (recombinant H. pomatia AMP deaminase) (Helix pomatia) (protein)
chain: LAVRFPTMDEYTNAREELIGSEQYLRVGGSINLNNKEKKLNQFILREKRAIIENSRLNKTQYIPAVSFFLSKSQMESTPIFKIIKDMPKGAALHLHDTASARIDWIVSNATYRDHVYMCMDQDNFVRLTVSGTGPPANSGCEWKLVETERANSGDIAAFDHWLKSNISLLTTDPLVTYPSLDKVWGRFDKHFSQLRGIIYHTPIRRDYYRQILEEFRSDNVQYVEVRSSLSGYYDLDGTVHDPEYGLQLYKAVTEEFVRTYPDFSGAKIIKSTARVKPNTDIFNDVKLSMDLYKRYPGFFLGFDLVAQEDPNTSLLGYIDSLLYPSRQNPPVSLPYYFHAGETNWQGTEVDYNLVDALLLNATRIGHGFALIKHPRVIELVKSRGVAVEVNPVSNQLLGLVKDLRNHAAAPLLAQNVPVVISSDDPGVWEALPMSHDMYVAFMDLVGEDAGLDVLKQLVWNSIQYSSMNATEKKTALKLLQAKWNNFINDSLIKWKLTNKKVI
notes: secreted from Pichia pastoris with alpha-factor signal; C-terminal His10; Endo Hf treated; 58676 Da; ORF 536 residues; homodimer predicted
Regarding B1, the Km was 25 µM and the kcat amounted to 170 per second.
